Results published in publication PMC11480844 (2024).

Biological target: T1, peptide on HLA-B*07:02 (human)
T1 peptide: VPSVWRSSL
Experiment: activation reporter or marker

B1: R28 (TCR, V domains shown)
Valpha: AQTVTQSQPEMSVQEAETVTLSCTYDTSESDYYLFWYKQPPSRQMILVIRQEAYKQQNATENRFSVNFQKAAKSFSLKISDSQLGDAAMYFCAYRSAGNQGAQKLVFGQGTRLTINP
Vbeta: ETGVTQSPTHLIKTRGQQVTLRCSSQSGHNTVSWYQQALGQGPQFIFQYYREEENGRGNFPPRFSGLQFPNYSSELNVNALELDDSALYLCASSLGRGTYEQYFGPGTRLTVT
binding result: recognises

B2: R23 (TCR, V domains shown)
Valpha: KQEVTQIPAALSVPEGENLVLNCSFTDSAIYNLQWFRQDPGKGLTSLLLIQSSQREQTSGRLNASLDKSSGRSTLYIAASQPGDSATYLCAVRPQGGSEKLVFGKGTKLTVNP
Vbeta: EAQVTQNPRYLITVTGKKLTVTCSQNMNHEYMSWYRQDPGLGLRQIYYSMNVEVTDKGDVPEGYKVSRKEKRNFPLILESPSPNQTSLYFCASTVGGTQYFGPGTRLTVL
binding result: recognises

B3: R25 (TCR, V domains shown)
Valpha: GENVEQHPSTLSVQEGDSAVIKCTYSDSASNYFPWYKQELGKGPQLIIDIRSNVGEKKDQRIAVTLNKTAKHFSLHITETQPEDSAVYFCAAQKTSYDKVIFGPGTSLSVIP
Vbeta: EAQVTQNPRYLITVTGKKLTVTCSQNMNHEYMSWYRQDPGLGLRQIYYSMNVEVTDKGDVPEGYKVSRKEKRNFPLILESPSPNQTSLYFCASSTPGSLNEQFFGPGTRLTVL
binding result: recognises

B4: R24 (TCR, V domains shown)
Valpha: GQQVMQIPQYQHVQEGEDFTTYCNSSTTLSNIQWYKQRPGGHPVFLIQLVKSGEVKKQKRLTFQFGEAKKNSSLHITATQTTDVGTYFCAVHMNRDDKIIFGKGTRLHILP
Vbeta: EAQVTQNPRYLITVTGKKLTVTCSQNMNHEYMSWYRQDPGLGLRQIYYSMNVEVTDKGDVPEGYKVSRKEKRNFPLILESPSPNQTSLYFCASSLTSFYEQYFGPGTRLTVT
binding result: recognises

B5: R21 (TCR, V domains shown)
Valpha: AQKVTQAQTEISVVEKEDVTLDCVYETRDTTYYLFWYKQPPSGELVFLIRRNSFDEQNEISGRYSWNFQKSTSSFNFTITASQVVDSAVYFCALGTYGNNRLAFGKGNQVVVIP
Vbeta: NAGVTQTPKFRILKIGQSMTLQCAQDMNHNYMYWYRQDPGMGLKLIYYSVGAGITDKGEVPNGYNVSRSTTEDFPLRLELAAPSQTSVYFCASTKGGPSSYEQYFGPGTRLTVT
binding result: recognises

B6: R26 (TCR, V domains shown)
Valpha: GQQVMQIPQYQHVQEGEDFTTYCNSSTTLSNIQWYKQRPGGHPVFLIQLVKSGEVKKQKRLTFQFGEAKKNSSLHITATQTTDVGTYFCAGQDYAGKSTFGDGTTLTVKP
Vbeta: DTGVSQNPRHKITKRGQNVTFRCDPISEHNRLYWYRQTLGQGPEFLTYFQNEAQLEKSRLLSDRFSAERPKGSFSTLEIQRTEQGDSAMYLCASSSGGRFYGYTFGSGTRLTVV
binding result: recognises
